The values that follow come from patent publication EP4582451A1 (Changchun Genescience Pharmaceutical Co., Ltd., dated 2025).

Test [1] addresses T1, monkey thyroid-stimulating hormone receptor (TSHR) (monkey, UniProt A0A2K5X226 21-764).
T1 construct: Overexpressed on 293 cells; also called monkey TSHR
As to the kind of experiment: flow cytometry (FACS), 293 cells overexpressing monkey TSHR.

Test [2] deals with T2, hFcRn-Avi (Biosystems, FCM-H82W7) (human (printed as hFcRn), UniProt P55899 24-297; P61769 21-119, biotin on the Avi tag is implied by capture on an SA chip).
T2 construct: Bought reagent
As to the kind of experiment: SPR (Biacore 8K+), hFcRn-Avi captured on SA chip, antibody in flow, pH 6.0, 25 C, steady-state fit.

For test [3], the target named is T3, human thyroid-stimulating hormone receptor (TSHR) (human, UniProt P16473 21-764). Put plainly: cell-based or functional assay.
The target in test [4] is T4, mouse thyroid-stimulating hormone receptor (TSHR) (mouse, UniProt P47750 22-764).
T4 construct: whole, on cells; Overexpressed on 293 cells; also called mouse TSHR; murine TSHR
Put plainly: flow cytometry (FACS), 293 cells overexpressing mouse TSHR.

Test [5] has as its target T3, human thyroid-stimulating hormone …. As to the kind of experiment: flow cytometry (FACS), 293 cells overexpressing human TSHR.
Test [6] concerns the target T1, monkey thyroid-stimulating hormone …. As to the kind of experiment: flow cytometry (FACS), 293 cells overexpressing monkey TSHR. This is another data set of the same source.
Test [7] deals with T4, mouse thyroid-stimulating hormone …. As to the kind of experiment: flow cytometry (FACS), 293 cells overexpressing mouse TSHR. The source holds these as a separate data set.
Test [8] deals with T3, human thyroid-stimulating hormone …. As to the kind of experiment: cell-based or functional assay. The source holds these as a separate data set.
Test [9] addresses T1, monkey thyroid-stimulating hormone …. Put plainly: flow cytometry (FACS), 293 cells overexpressing monkey TSHR. The source holds these as a separate data set.
Test [10] concerns the target T3, human thyroid-stimulating hormone …. Put plainly: flow cytometry (FACS), 293 cells overexpressing human TSHR. This is another data set of the same source.
Test [11] deals with T4, mouse thyroid-stimulating hormone …. Put plainly: flow cytometry (FACS), 293 cells overexpressing mouse TSHR. The source holds these as a separate data set.
Test [12] deals with T1, monkey thyroid-stimulating hormone …. Put plainly: flow cytometry (FACS), 293 cells overexpressing monkey TSHR. The source holds these as a separate data set.
The target in test [13] is T4, mouse thyroid-stimulating hormone …. As to the kind of experiment: flow cytometry (FACS), 293 cells overexpressing mouse TSHR. The source holds these as a separate data set.
For test [14], the target named is T3, human thyroid-stimulating hormone …. As to the kind of experiment: flow cytometry (FACS), 293 cells overexpressing human TSHR. The source holds these as a separate data set.

Where a chain is given by its changes, count along the chain named. Like-named read-outs stand apart in the source and are kept apart here.

T2 sequence (P55899 24-297 limits assumed, chain 1 of 2): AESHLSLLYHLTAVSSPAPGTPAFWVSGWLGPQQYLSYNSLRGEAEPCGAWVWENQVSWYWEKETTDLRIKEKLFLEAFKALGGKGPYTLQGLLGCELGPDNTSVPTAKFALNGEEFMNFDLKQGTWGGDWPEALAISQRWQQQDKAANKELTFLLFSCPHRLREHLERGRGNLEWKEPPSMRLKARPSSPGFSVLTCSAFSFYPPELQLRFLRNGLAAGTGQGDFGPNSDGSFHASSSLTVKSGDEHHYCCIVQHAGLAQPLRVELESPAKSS
T2 sequence (P61769 21-119 limits assumed, chain 2 of 2): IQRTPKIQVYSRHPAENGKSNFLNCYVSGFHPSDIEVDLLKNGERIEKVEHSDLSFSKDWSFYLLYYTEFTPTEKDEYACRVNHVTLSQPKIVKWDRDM
T4 sequence (P47750 22-764): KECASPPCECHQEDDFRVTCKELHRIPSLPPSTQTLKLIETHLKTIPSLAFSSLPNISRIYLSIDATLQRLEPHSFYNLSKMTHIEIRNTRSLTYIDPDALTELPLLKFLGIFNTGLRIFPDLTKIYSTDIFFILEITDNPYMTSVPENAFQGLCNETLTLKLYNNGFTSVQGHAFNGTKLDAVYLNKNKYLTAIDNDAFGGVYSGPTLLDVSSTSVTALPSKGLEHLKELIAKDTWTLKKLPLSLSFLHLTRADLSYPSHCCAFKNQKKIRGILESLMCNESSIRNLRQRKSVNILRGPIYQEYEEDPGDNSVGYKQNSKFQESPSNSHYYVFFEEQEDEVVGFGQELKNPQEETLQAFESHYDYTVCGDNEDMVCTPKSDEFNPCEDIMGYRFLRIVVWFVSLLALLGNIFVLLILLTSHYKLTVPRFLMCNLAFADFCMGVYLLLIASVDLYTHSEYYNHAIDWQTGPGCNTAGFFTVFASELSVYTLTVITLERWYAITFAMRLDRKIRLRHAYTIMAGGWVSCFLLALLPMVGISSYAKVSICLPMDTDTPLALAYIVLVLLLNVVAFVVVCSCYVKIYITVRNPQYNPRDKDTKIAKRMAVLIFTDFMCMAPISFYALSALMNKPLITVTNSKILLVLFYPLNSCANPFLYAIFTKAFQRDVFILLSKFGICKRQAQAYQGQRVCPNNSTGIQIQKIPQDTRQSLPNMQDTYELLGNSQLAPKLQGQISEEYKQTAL
T3 sequence (P16473 21-764): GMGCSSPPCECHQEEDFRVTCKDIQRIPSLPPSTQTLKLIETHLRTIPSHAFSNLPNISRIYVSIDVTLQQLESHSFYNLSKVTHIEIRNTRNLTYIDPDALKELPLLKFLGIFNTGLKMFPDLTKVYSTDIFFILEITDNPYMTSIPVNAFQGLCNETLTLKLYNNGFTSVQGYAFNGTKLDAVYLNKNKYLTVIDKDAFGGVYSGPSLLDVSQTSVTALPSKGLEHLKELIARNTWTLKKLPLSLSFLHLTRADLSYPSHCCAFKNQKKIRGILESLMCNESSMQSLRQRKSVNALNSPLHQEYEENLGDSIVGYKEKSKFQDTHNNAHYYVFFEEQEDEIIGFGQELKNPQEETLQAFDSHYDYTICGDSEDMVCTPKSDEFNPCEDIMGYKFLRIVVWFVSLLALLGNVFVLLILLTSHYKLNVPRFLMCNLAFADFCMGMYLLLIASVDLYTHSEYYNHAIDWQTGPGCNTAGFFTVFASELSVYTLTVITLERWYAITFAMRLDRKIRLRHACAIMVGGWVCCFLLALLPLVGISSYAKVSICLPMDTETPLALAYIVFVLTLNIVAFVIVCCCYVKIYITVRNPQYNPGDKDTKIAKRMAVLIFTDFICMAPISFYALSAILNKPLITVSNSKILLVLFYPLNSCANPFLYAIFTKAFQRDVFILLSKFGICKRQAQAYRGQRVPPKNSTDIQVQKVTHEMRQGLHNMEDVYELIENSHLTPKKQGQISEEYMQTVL
T1 sequence (A0A2K5X226 entry or part of it limits assumed, form in doubt): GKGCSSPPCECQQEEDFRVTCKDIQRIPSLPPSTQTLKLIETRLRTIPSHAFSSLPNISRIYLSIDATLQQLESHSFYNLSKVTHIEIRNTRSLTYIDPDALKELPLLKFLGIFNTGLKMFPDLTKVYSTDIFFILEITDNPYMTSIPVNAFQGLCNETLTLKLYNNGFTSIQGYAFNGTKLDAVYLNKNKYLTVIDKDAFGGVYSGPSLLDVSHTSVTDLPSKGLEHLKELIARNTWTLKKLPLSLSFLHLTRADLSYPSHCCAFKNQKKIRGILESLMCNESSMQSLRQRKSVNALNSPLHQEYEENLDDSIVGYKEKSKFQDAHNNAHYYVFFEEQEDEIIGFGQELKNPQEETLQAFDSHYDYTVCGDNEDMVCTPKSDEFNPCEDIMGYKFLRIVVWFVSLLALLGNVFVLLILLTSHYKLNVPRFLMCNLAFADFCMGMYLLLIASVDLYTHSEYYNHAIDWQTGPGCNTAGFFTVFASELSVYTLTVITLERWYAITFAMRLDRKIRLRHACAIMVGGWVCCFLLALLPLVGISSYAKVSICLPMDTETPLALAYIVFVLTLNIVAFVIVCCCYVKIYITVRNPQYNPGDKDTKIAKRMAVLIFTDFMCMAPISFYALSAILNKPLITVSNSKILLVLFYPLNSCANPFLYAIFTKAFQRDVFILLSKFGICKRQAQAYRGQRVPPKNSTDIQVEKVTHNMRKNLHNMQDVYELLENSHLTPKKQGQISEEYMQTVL

B1: hAb01_G4P_V1 (antibody, human IgG4 S228P, kappa)
heavy: EVQLVESGGGLVKPGGSLRLSCAASGFTLSDYYIYWVRQAPGKGLEWVATISDAVIYTYYADSVKGRFTISRDNAKNSLYLQMNSLRAEDTAVYFCARAYGSSEVMDYWGQGTLVTVSSASTKGPSVFPLAPCSRSTSESTAALGCLVKDYFPEPVTVSWNSGALTSGVHTFPAVLQSSGLYSLSSVVTVPSSSLGTKTYTCNVDHKPSNTKVDKRVESKYGPPCPPCPAPEFLGGPSVFLFPPKPKDTLYITREPEVTCVVVDVSQEDPEVQFNWYVDGVEVHNAKTKPREEQFNSTYRVVSVLTVLHQDWLNGKEYKCKVSNKGLPSSIEKTISKAKGQPREPQVYTLPPSQEEMTKNQVSLTCLVKGFYPSDIAVEWESNGQPENNYKTTPPVLDSDGSFFLYSRLTVDKSRWQEGNVFSCSVMHEALHNHYTQKSLSLSLGK
light: EIVLTQSPATLSLSPGERATLSCSASSSVSYMHWYQQKPGQAPKRWIYDTSKLASGVPARFSGSGSGTDYTLTISSLEPEDFAVYYCQQWSSNPWTFGGGTKLEIKRTVAAPSVFIFPPSDEQLKSGTASVVCLLNNFYPREAKVQWKVDNALQSGNSQESVTEQDSKDSTYSLSSTLTLSKADYEKHKVYACEVTHQGLSSPVTKSFNRGEC
notes: also called hAb01_G4_V1
Turning to B1, in test [1], the 50% effective concentration (EC50) is 2.77 nM and the Max_MFI was determined as 190000. Further, in [2], the affinity, expressed as Kd, was 119 nM and the “Response value (RU)” value was 73.1 RU. Further, in test [3], the “IC50 (nM), cAMP in 293-human TSHR cells activated by Tab01” value was determined as 2.95 nM; the “IC50 (nM), cAMP in 293-human TSHR cells activated by Tab02” value amounted to 2.74 nM; the “Maximum inhibition rate (%), cAMP in 293-human TSHR cells activated by Tab01” value came out at 105%; the “Maximum inhibition rate (%), cAMP in 293-human TSHR cells activated by Tab02” value is 100%. Further, in test [4], the EC50 was 2.35 nM and the Max_MFI came to 138000. Besides, in test [5], the midpoint of the response, the EC50, lay at 5.82 nM and the Max_MFI worked out at 282000.

B2: hAb01_G1 (antibody, human IgG1, kappa)
heavy: not shown
light: B1 light
notes: Same variable regions as hAb01_G4P, constant region subtype hIgG1
Take B2: in [2], binding was put at a Kd of 189 nM and the “Response value (RU)” value was 60.7 RU.

B3: humanized antibody cAb01-VH3-DA-VL2 (antibody, human IgG4 S228P, kappa, V domains shown)
VH: EVQLVESGGGLVKPGGSLRLSCAASGFTLSDYYIYWVRQAPGKRLEWVATISDAVIYTYYADSVKGRFTISRDNAKNSLYLQMNSLRAEDTAVYFCARAYGSSEVMDYWGQGTLVTVSS
VL: EIVLTQSPATLSLSPGERATLSCSASSSVSYMHWYQQKPGQAPRRWIYDTSKLASGIPARFSGSGSGTDYTLTISSLEPEDFAVYYCQQWSSNPWTFGGGTKLEIKR
notes: Humanized from mAb001
As to B3, in [6], the EC50 came to 2.29 nM and the Maximum binding signal is 225000. Besides, in [7], the response was half-maximal at 2.09 nM (EC50) and the Maximum binding signal was found to be 129000. In [8], the “IC50(nM), cAMP in 293-human TSHR cells activated by Tab01 (30 nM)” value worked out at 0.29 nM; the “IC50(nM), cAMP in 293-human TSHR cells activated by Tab02 (6.5 nM)” value came out at 0.23 nM; the “Inhibition rate (%), cAMP in 293-human TSHR cells activated by Tab01 (30 nM)” value is 84%; the “Inhibition rate (%), cAMP in 293-human TSHR cells activated by Tab02 (6.5 nM)” value was determined as 82.8%.

B4: humanized antibody cAb01-VH1-DA-VL2 (antibody, human IgG4 S228P, kappa, V domains shown)
VH: B3 VH with R44G, A49S, F95Y
VL: B3 VL
notes: Humanized from mAb001
In the case of B4, in test [6], the EC50 was 2.19 nM and the Maximum binding signal turned out to be 187000. In test [7], this molecule yielded a concentration giving a half-maximal response (EC50) of 2.4 nM and a Maximum binding signal of 113000. Also, in test [8], the “IC50(nM), cAMP in 293-human TSHR cells activated by Tab01 (30 nM)” value was 1.3 nM; the “IC50(nM), cAMP in 293-human TSHR cells activated by Tab02 (6.5 nM)” value was found to be 0.91 nM; the “Inhibition rate (%), cAMP in 293-human TSHR cells activated by Tab01 (30 nM)” value is 85.6%; the “Inhibition rate (%), cAMP in 293-human TSHR cells activated by Tab02 (6.5 nM)” value was found to be 87.4%.

B5: murine antibody mAb021 (antibody, V domains shown)
VH: QVQLQQPGAEHVQPGASVKLSCKASGYTFSNYWMQWVRQRPGQGLDWIGEIDPADSYTAYSQKFKGKATLTVDTSSTTAYMQLSSLTSEDSAVYYCARRNLLRSGDYWGQGTSLTVSS
VL: QIVLTQSPAIMSASPGEKVTMTCSASSGITYIHWYQQKSGTSPKRWIYDSSKLASGVPARFSGSGSGTSYSLTISSMEAEDAATYYCQQWSGNPPTFGAGTKLEVK
notes: Murine monoclonal antibody from hybridoma
In the case of B5, the 50% effective concentration (EC50) was determined as 4.5 nM in [9], 3.5 nM in test [10] and 10.3 nM in test [11]. Also, the Maximum binding signal was 42400 in [9], 52000 in test [10] and 31600 in test [11].

B6: humanized antibody cAb12-VH1-QG&S-VL3 (antibody, human IgG4 S228P, kappa, V domains shown)
VH: QVQLVQSGAEVKKPGASVKVSCKASGYTFTDYYMNWVRQAPGQGLEWMGVINPYQGESSNNQKFKGRVTMTRDTSTSTVYMELSSLRSEDTAVYYCARSYGYGYYFDYWGQGTTVTVSS
VL: AIQLTQSPSSLSASVGDRVTITCSATSSVTYMHWYQQKPGKAPKRWIYDTSKLTSGVPPRFSGSGSGTDYTLTISSLQPEDFATYYCQQWSTYPYTFGGGTKLEIKR
notes: Humanized from mAb012
Take B6: the EC50 in test [12] was found to be 8.1 nM; in test [13] it was 14 nM; in test [14], 10.5 nM. In addition, the values for the Maximum binding signal in [12], in [13] and in test [14] were 269000, 98800 and 420000, respectively.

B7: humanized antibody cAb12-VH3-QG&S-VL3 (antibody, human IgG4 S228P, kappa, V domains shown)
VH: B6 VH with R38K, M48I, V68A, R72V, T74K
VL: B6 VL
notes: Humanized from mAb012
With B7, the values for the EC50 in test [12], in test [13] and in test [14] were 9.2 nM, 15 nM and 6.5 nM, respectively. Further, the Maximum binding signal in [12] was 303000; in test [13], 135000; in test [14], 445000.

B8: murine antibody mAb001 (antibody, V domains shown)
VH: B3 VH with R19K, A40T, G42E, A54G, S78N, N84S, R87K, A88S, V93M, L114S
VL: QIVLTQSPAVLSASPGEKVTMTCSASSSVSYMHWYQQKSGTSPKRWIYDTSKLASGVPARFSGSGSGTSYSLTISSMEAEDAATYYCQQWSSNPWTFGGGTKLEIK
notes: as for B5
Take B8: the values for the concentration for a half-maximal effect (EC50) in test [9], in test [10] and in [11] were 0.98 nM, 1.28 nM and 2.52 nM, respectively. Besides, the figures for the Maximum binding signal in test [9], in test [10] and in test [11] were 13600, 21000 and 11800, respectively.

B9: murine antibody mAb012 (antibody, V domains shown)
VH: EVQLQQSGPVLLKPGASVKMSCKASGYTFTDYYMNWVKQSHGKSLEWIGVINPYNGESSNNQKFKGKATMTVDKSSSTAYMELNSLTSEDSAVYYCARCYGYGYYFDYWGQGTTLSVAS
VL: B8 VL with V10I, L11M, S26T, S30T, A54T, A59P, S92T, N93Y, W95Y
notes: as for B5
Take B9: the half-maximal effective concentration (EC50) in test [9] amounted to 2.8 nM; in [10], 4.74 nM; in test [11] it was 8.65 nM. Also, the Maximum binding signal in test [9] was 24400; in test [10] it was 30000; in [11] it was 20800.

B10: humanized antibody cAb21-VH2-VL2 (antibody, human IgG4 S228P, kappa, V domains shown)
VH: QVQLVQSGAEVKKPGASVKVSCKASGYTFSNYWMQWVRQAPGQGLEWIGEIDPADSYTAYSQKFKGRATMTVDTSTSTVYMELSSLRSEDTAVYYCARRNLLRSGDYWGQGTLVTVSS
VL: AIQLTQSPSSLSASVGDRVTITCSASSGITYIHWYQQKPGKAPKRWIYDSSKLASGVPSRFSGSGSGTDYTLTISSLQPEDFATYYCQQWSGNPPTFGQGTKLEIKR
notes: Humanized from mAb021
As for B10, the 50% effective concentration (EC50) in test [12] is 9.3 nM; in test [13], 11.9 nM; in [14], 10.4 nM. In addition, the Maximum binding signal worked out at 313000 in test [12], 175000 in test [13] and 402000 in [14].

B11: humanized antibody cAb21-VH1-VL3 (antibody, human IgG4 S228P, kappa, V domains shown)
VH: B10 VH with I48M, A68V, V72R
VL: B10 VL with S59A
notes: Humanized from mAb021
In the case of B11, the half-maximal effective concentration (EC50) in test [12] is 7.8 nM; in test [13] it was 10.4 nM; in test [14], 8.7 nM. Also, the Maximum binding signal in test [12] was 308000; in test [13] it was 185000; in [14] it was 398000.
